Test results reported in the supplement of paper PMC10567573.
± gives the standard deviation.

Experiment: protein stability index of a GFP-peptide fusion (GPS, HEK-293T) (PSI 1-6); higher = more stable
[1] = treatment: DMSO, c terminus: a fixed tail appended
[2] = treatment: MLN4924 1 uM, 8 h, c terminus: a fixed tail appended
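Further: 24-mer peptide tiles fused after GFP, lentivirally expressed, FACS-sorted into six equal bins by GFP/DsRed ratio, decoded by Illumina sequencing, PSI is the read-weighted mean bin number.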

Row | Sequence | protein stability index [1] | protein stability index [2] | protein stability index (treatment: DMSO, c terminus: native) | protein stability index (treatment: MLN4924 1 uM, 8 h, c terminus: native)
1 | AAAATVLLRTARVRRECWFLPTAL [SLC19A2] | 2.51 ± 0.54 | 2.28 ± 0.42 | – | –
2 | AAASGAAGGGGGGAGAGAPGGGRL [INTS3] | 4.98 ± 0.2 | 4.91 ± 0.26 | – | –
3 | AAIVVNGHGMTPLKVAAESCKADV [FEM1B] | 3.38 ± 0.39 | 3.3 ± 0.35 | – | –
4 | AAQEGHLELVKYLLAAGANVHATT [ANKRD17] | 2.34 ± 0.3 | 2.74 ± 0.35 | – | –
5 | ADESVLWQLFGPFGAVTNVKVIRD [ELAVL3] | 2.23 ± 0.18 | 2.35 ± 0.33 | – | –
6 | ADGQESTPPTPAPTSGIVGALMEV [WASL] | 4.86 ± 0.1 | 4.56 ± 0.17 | – | –
7 | ADLLEEEVIISWSEKASKKYVSKE [EIF5] | 3.98 ± 0.31 | 4.16 ± 0.41 | – | –
8 | ADSLDFDETFLATSFLQHPWDESG [FOXJ1] | 4.22 ± 0.087 | 4.08 ± 0.13 | – | –
9 | ADSMLMQGSRGLTDQAIFYAVTPL [HDAC6] | 2.54 ± 0.39 | 2.46 ± 0.44 | – | –
10 | AEDTEKKDEPSKYNQQQALIDQRY [CEP70] | 5.2 ± 0.31 | 5.36 ± 0.059 | – | –
11 | AEEKEQLLHNDEYQETMVESTFMY [USP39] | 4.69 ± 0.27 | 4.8 ± 0.2 | – | –
12 | AEGTTGLAPAGQTSEESRPRLSQL [TNXB] | 5.66 ± 0.21 | 5.36 ± 0.25 | – | –
13 | AELQAELLHSQARLAELEAQVRKL [FBF1] | 4.29 ± 0.21 | 4.26 ± 0.092 | – | –
14 | AFRALASAQCPQFGIPRKRLKQS [SPOPL] | – | – | 2.74 ± 0.19 | 2.83 ± 0.16
15 | AGEDNDELIDNLKEAQYIRTELVE [PCMTD2] | 5.13 ± 0.18 | 5.02 ± 0.17 | – | –
16 | AGGSSGTTARERPCVRPGVSGSPV [FBF1] | 4.58 ± 0.16 | 4.47 ± 0.32 | – | –
17 | AGGSSSTPTPQALYPDLSCPEGLE [SPSB2] | 5.15 ± 0.31 | 5.21 ± 0.25 | – | –
18 | AGNDPYCFVEFHEHRHAAAALAAM [TIA1] | 2.66 ± 0.17 | 2.7 ± 0.25 | – | –
19 | AGNSSRNSSQSSSDGSCKTAGEMV [BTBD10] | 5.16 ± 0.35 | 5.14 ± 0.22 | – | –
20 | AGQKRKHSEGRVEVYYDGQWGTVC [LOXL2] | 2.87 ± 1.3 | 3.35 ± 1 | – | –
21 | AGQRGEPGPKGDPGEKSHWGEGLH [EMID1] | 4.34 ± 0.36 | – | – | –
22 | AKAQVRKAVQYEEKNPCRTLCCFC [STX11] | 2.97 ± 0.24 | 3.36 ± 0.54 | – | –
23 | AKKLPPVQESQSERLQAAGTDSAG [ELOA2] | 5.2 ± 0.18 | 5.09 ± 0.24 | – | –

Row | Sequence | protein stability index [1] | protein stability index [2] | protein stability index (treatment: DMSO, c terminus: native) | protein stability index (treatment: MLN4924 1 uM, 8 h, c terminus: native)
24 | AKLAINQGMEVDLVTGLAIEEACY [AUH] | 2.07 ± 0.21 | 2.32 ± 0.44 | – | –
25 | AKNYIWALSEILRIGKRPDLLTFV [NEUROD6] | 2.53 ± 0.52 | 2.69 ± 0.92 | – | –
26 | AKQKLDFFIRTSDSFDKFDFCEPS [PCMTD2] | 2.87 ± 0.26 | 3.02 ± 0.47 | – | –
27 | AKVPRPPSTLLPTPEEQGELEPLK [FOXJ1] | 5.19 ± 0.23 | 5.3 ± 0.18 | – | –
28 | AKYPHDVVNHLSCDEARNHYGGVV [SPACA9] | 3.5 ± 0.27 | 3.58 ± 0.082 | – | –
29 | ALAREFSCPFFETSAAYRYYIDDV [RIT1] | 2.29 ± 0.13 | 2.08 ± 0.12 | – | –
30 | ALGILIFEMLSGFPPFFDDNPFGI [PRKX] | 3.11 ± 1.7 | 3.31 ± 0.25 | – | –
31 | ALGTSWTLPLQDRELGPEELDELQ [CABP4] | 5.4 ± 0.097 | 5.23 ± 0.16 | – | –
32 | ALKEELLFMKKNHEEEVKGLQAQI [KRT18] | 3.79 ± 0.36 | 3.95 ± 0.28 | – | –
33 | ALMHTLQRHRDILQVIYWARDVFI [GOSR1] | 2.84 ± 0.5 | 2.26 ± 0.47 | – | –
34 | ALPEAPAPLLPHITATSLLGTRES [BCL2L13] | 4.67 ± 0.23 | 4.56 ± 0.16 | – | –
35 | ALRLEVRAGPDSAGIALYSHEDVC [CARM1] | 2.61 ± 0.64 | 2.55 ± 0.56 | – | –
36 | ALSPAGVCGGAQRPGHLPGLLLGS [CDC25B] | 2.51 ± 0.22 | 2.93 ± 0.46 | – | –
37 | ANWQPKVAPATWSAGVPPSAPLQG [SNAP91] | 4 ± 0.098 | 3.85 ± 0.25 | – | –
38 | APAMYDDESAIDFSAYIDSMAAVP [CEBPD] | 4.32 ± 0.27 | 3.62 ± 0.15 | – | –
39 | APAPSQVKSKAKKTVDKHSDEYKI [CEBPB] | 5.36 ± 0.17 | 5.37 ± 0.25 | – | –
40 | APIRVRNLTIRAGALTGKENNMLQ [DMRTC1] | 3.46 ± 0.23 | 3.26 ± 0.19 | – | –
41 | APLQADLTEQVWKVQDALQNQSDS [SCARA5] | 5.26 ± 0.24 | 5.24 ± 0.28 | – | –
42 | APPPADSAPQQNGQPLRPLVPDAS [PDLIM7] | 5.27 ± 0.12 | 5.37 ± 0.13 | – | –
43 | AQEPSAVPRAGPLTVNTEAQQLLR [FOXJ1] | 4.62 ± 0.39 | 4.9 ± 0.17 | – | –
44 | AQKQRLERALDATEVPFSITTDNL [TEKT4] | 4.72 ± 0.29 | 4.77 ± 0.22 | – | –
45 | AQLSELRCEMEAQNQEYKMLLDIK [KRT15] | 3.65 ± 0.33 | 3.65 ± 0.38 | – | –
46 | AQQIRLHHFNSSHLEIDDMYTPAY [MYORG] | 2.86 ± 0.26 | 2.91 ± 0.21 | – | –

Row | Sequence | protein stability index [1] | protein stability index [2] | protein stability index (treatment: DMSO, c terminus: native) | protein stability index (treatment: MLN4924 1 uM, 8 h, c terminus: native)
47 | AQSPGAVEEILDRENKRMADSLAS [BET1L] | 5.12 ± 0.14 | 5.35 ± 0.26 | – | –
48 | AQTELLCCLVKMESLEPDAQVLML [FANCE] | 2.61 ± 0.68 | 2.34 ± 0.16 | – | –
49 | AREELMESRMRIESLSSQLSNLQK [LMNB1] | 3.95 ± 0.18 | 4.07 ± 0.19 | – | –
50 | ARIYEETLNILLYEAQDGRGPDNA [KCTD10] | 3.23 ± 0.28 | 3.04 ± 0.6 | – | –
51 | ARLLGALAARSGAAYGPGARGEDR [TSPAN10] | 3.89 ± 0.73 | 3.91 ± 0.18 | – | –
52 | ASSGLTVEVDAPKSQDLAKIMADI [KRT18] | 4.45 ± 0.3 | 4.57 ± 0.057 | – | –
53 | ATLICMAMQASKATKITLSAIYKW [FOXJ1] | 3.15 ± 0.48 | 2.92 ± 0.71 | – | –
54 | ATQQARKRNFISSKSKQPAGHRRP [C22orf31] | 4.58 ± 0.27 | 4.71 ± 0.31 | – | –
55 | ATSVTVPGAGVPSGSGGTVAPATM [ZBTB22] | 4.7 ± 0.38 | 4.64 ± 0.43 | – | –
56 | ATYRRLLEGEDAHLSSQQASGQSY [KRT16] | 4.46 ± 0.22 | 4.4 ± 0.29 | – | –
57 | AVAQTAHLPADSEVTLEANPTSAP [RSAD1] | 5.4 ± 0.14 | 5.35 ± 0.23 | – | –
58 | AVNQEAMNNAQRIEKWVILEKDFS [ACSBG2] | 3.16 ± 0.31 | 3.47 ± 0.46 | – | –
59 | AWNPEDRSLNVFVKDDDRLTFHRH [SPSB4] | 3.65 ± 0.27 | 3.76 ± 0.19 | – | –
60 | AYVSPEILNTTGTYSGKAADVWSL [TRIB1] | 2.51 ± 0.3 | 2.37 ± 0.52 | – | –
61 | AYYRGAVGALLVYDIAKHLTYENV [RAB11A] | 3.11 ± 0.5 | 2.89 ± 0.59 | – | –
62 | CALNALTTTVCLVAAALRYLQIFA [FAM189A2] | 2.75 ± 0.37 | 3.1 ± 0.23 | – | –
63 | CANFGDQGITMGCWDMYRHDIDCQ [LOXL2] | 2.42 ± 0.29 | 2.6 ± 0.57 | – | –
64 | CCIDWTHVTDPLIGCKKPVSASGK [SMG5] | 3.05 ± 0.21 | 3.09 ± 0.18 | – | –
65 | CCIVTSTYGWTANMERIMKAQALR [HSP90AB1] | – | 2.42 ± 0.4 | – | –
66 | CEEWSFFHAYYYCFITLTTIGFGD [KCNK9] | 3.33 ± 0.098 | 2.96 ± 0.37 | – | –
67 | CEFSSERGPRMCRFIRERDRAVND [CDC25B] | 3.51 ± 0.22 | 3.52 ± 0.17 | – | –
68 | CEKRCSYCNFNKYIPRRLEEAAMQ [RSAD1] | 2.4 ± 0.028 | 2.6 ± 0.31 | – | –
69 | CFALIPKAPKKDVIKMLVNDNKVL [EFHC1] | 2.28 ± 0.44 | 2.43 ± 0.53 | – | –

Row | Sequence | protein stability index [1] | protein stability index [2] | protein stability index (treatment: DMSO, c terminus: native) | protein stability index (treatment: MLN4924 1 uM, 8 h, c terminus: native)
70 | CFRSLAASSPSIRQKKLMHKLQEE [CCDC70] | 3.22 ± 0.15 | 3.33 ± 0.046 | – | –
71 | CHCLKGFTLNPDKKTCRRINYCAL [MATN2] | 2.5 ± 0.24 | 2.14 ± 0.18 | – | –
72 | CHELLGHVPLLAEPSFAQFSQEIG [TPH1] | 3.1 ± 0.27 | 3.02 ± 0.26 | – | –
73 | CHPDDQFTTSILRHWCMKHDELLA [INTS3] | 3.03 ± 0.28 | 3.06 ± 0.41 | – | –
74 | CHRHYHSMEVFTHYDLLNLNGTKV [LOXL2] | 2.21 ± 0.12 | 1.99 ± 0.25 | – | –
75 | CIDFNKNLNEDDTFLVFSKAELGA | 2.88 ± 0.63 | 2.81 ± 0.24 | – | –
76 | CLETLPEFRDDRDLVMALSAGGHG [KCNA4] | 3.68 ± 0.26 | 3.51 ± 0.34 | – | –
77 | CLQQKQVVAEAQTRVSQLGLQVEG [LRRC45] | 3.86 ± 0.24 | 3.8 ± 0.38 | – | –
78 | CLTQSTAAPAVRASSSPVTLRQKT [SLA] | 4.02 ± 0.35 | 4.35 ± 0.052 | – | –
79 | CQVALNFANEEEAKKFRKAVTDLL [WASL] | 1.91 ± 0.35 | 2.53 ± 0.84 | – | –
80 | DAPLPGSKAKPKPPKQAQKEQRKQ [TBC1D10A] | 5.45 ± 0.087 | 5.31 ± 0.18 | – | –
81 | DDATLSRLELERKIESLMDEIEFL [PRPH] | 4 ± 0.23 | 3.88 ± 0.28 | – | –
82 | DDRVLSSLVRDTIARVHGTFGAAA [POP5] | 2.89 ± 0.29 | 2.96 ± 0.23 | – | –
83 | DDSKFPIEDTPLVPVSFIFIFTFV [PCDHGA10] | 3.32 ± 0.36 | 2.09 ± 0.062 | – | –
84 | DEDDVDQELANIDPTWIESPKTNG [SRPK2] | 5.23 ± 0.63 | 5.2 ± 0.36 | – | –
85 | DEELGGSSRVPVGGGPEATLSISD [ZBTB22] | 5.37 ± 0.18 | 5.42 ± 0.06 | – | –
86 | DEGEEFDDWEDDYDYPEEEQLSGA [EID1] | 5.39 ± 0.22 | 5.3 ± 0.22 | – | –
87 | DENYNLLPHGVNFQDAIFPDTQEN [CCDC3] | 4.92 ± 0.29 | 5.06 ± 0.21 | – | –
88 | DEPTFKVLLKTADPRYELPSRKYI [ZBED1] | 2.81 ± 0.26 | 3.19 ± 0.4 | – | –
89 | DEQEKGIVTKFYQLSATGQKLYVR [FAN1] | 2.92 ± 0.22 | 2.94 ± 0.54 | – | –
